According to patent publication US12365732 (23ANDME, dated 2025):
Where a chain is given by its changes, count along the chain named. Names and notes keep the numbering of the source.

B1: mAb1.v7 IgG (humanized 12F8) (antibody, V domains shown)
VH: EVQLVQSGAEVKKPGASVKVSCKASGFTFTNNWMHWVRQAPGQGLEWIGMIHPNSGITNINEKFKNRVTMTTDTSTSTAYMELRSLRSEDTAVYYCRSDGTYEGYFDYWGQGTLVTVSS
VL: DIQLTQSPSSLSASVGDRVTITCKASQNVGTAIVWYQQKPGKAPKVLIYSASTRYTGVPSRFSGSGSGTDFTLTISSLQPEDFATYYCQQYSSSPLTFGQGTKVEIKG
notes: human IgG1 N297G
B2: 7E5, purified hybridoma antibody (antibody, V domains shown)
VH: QVQLKESGPGLVAPSQSLSIICTVSGFSLTNYGIHWIRQPPGKGLEWLGIIWAGGSTNYNSALMSRLTISKDNSKSQVFLKMNSLQTNDTAIYYCARVSMMGFAYWGQGTLVTVSA
VL: QAVVTQESALTTSPGETVTLTCRSSTGAVTTSNYANWVQEKPDHLFTGLIGGTNNRAPGVPARFSGSLIGDKAALTITGAQTEDEAIYFCSLWYGSHWVFGGGTKLTVL
notes: murine hybridoma IgG
B3: 9H4, purified hybridoma antibody (antibody, V domains shown)
VH: EVQLLETGGGLVKSGGSLKLSCAASGFTFSDYYMYWVRQTPEKRLEWVAAISDDGTYTYYPDSVKGRFTISRDNANNYLYLQMSSLKSEDTAIYYCAKAGSYDYFDVWGAGTTVTVSS
VL: DIVLTQSPASLAVSLGQRAIISCKASQSVTFADTGLMHWYQQKPGQQPKLLIYRASNLEVGVPTRFSGSGSGTDFTLNIHPVEEEDVATYYCQQSREYPWTFGGGTKLEIK
notes: murine hybridoma IgG
B4: 10G1 (clone 10G1.3G8), purified hybridoma antibody (antibody, V domains shown)
VH: QIQLVQSGPELKKPGETVKISCKASGYPFTTYGMSWVKQAPGKGLKWMGWINTDSGVPTYADDFKGRFAFSLETSANTAYLQINSLKNEDAATYFCARNIYYGWGNFDYWGQGTILTVSS
VL: DILMTQSPTTLSVTPGETVSLSCRASQDIYRNLHWYQQKSQGTPRLLIKHASDSISGIPSRFTGSGSGTDFTLSINSVKPEDEGIYYCLQGYSMPYTFGGGTKLEIK
notes: murine hybridoma IgG
B5: mAb1.v7.NGS9 IgG (antibody, V domains shown)
VH: B1 VH with W33F, P53A, T101V
VL: B1 VL
notes: human IgG1 N297G
B6: mAb1.v7.NGS10 IgG (antibody, V domains shown)
VH: B1 VH with W33F, M50F, P53A, T101I
VL: B1 VL
notes: human IgG1 N297G
B7: mAb1.v7.NGS11 IgG (antibody, V domains shown)
VH: B1 VH with W33F, M50F, P53A, T101V
VL: B1 VL
notes: human IgG1 N297G
B8: h10G1 IgG (humanized 10G1) (antibody, V domains shown)
VH: EIQLVQSGSELKKPGASVKVSCKASGYPFTTYGMSWVRQAPGQGLEWMGWINTDSGVPTYADDFKGRFVFSLDTSVSTAYLQISSLKAEDTAVYFCARNIYYGWGNFDYWGQGTLVTVSS
VL: EIVMTQSPDFQSVTPKEKVTITCRASQDIYRNLHWYQQKPDQTPKLLIKHASDSISGIPSRFSGSGSGTDFTLTINSLEAEDAAAYYCLQGYSMPYTFGGGTKVEIKG
notes: human IgG1 N297G

These binders were tested against T1, hu-CD96 isoform 1 on HEK293T cells (human, UniProt P40200 22-585) (assay: FACS, Ab 0.08 nM).
T1 construct: Origene RC213845, transient expression; also called HEK293T-CD96 (iso1)
T1 sequence: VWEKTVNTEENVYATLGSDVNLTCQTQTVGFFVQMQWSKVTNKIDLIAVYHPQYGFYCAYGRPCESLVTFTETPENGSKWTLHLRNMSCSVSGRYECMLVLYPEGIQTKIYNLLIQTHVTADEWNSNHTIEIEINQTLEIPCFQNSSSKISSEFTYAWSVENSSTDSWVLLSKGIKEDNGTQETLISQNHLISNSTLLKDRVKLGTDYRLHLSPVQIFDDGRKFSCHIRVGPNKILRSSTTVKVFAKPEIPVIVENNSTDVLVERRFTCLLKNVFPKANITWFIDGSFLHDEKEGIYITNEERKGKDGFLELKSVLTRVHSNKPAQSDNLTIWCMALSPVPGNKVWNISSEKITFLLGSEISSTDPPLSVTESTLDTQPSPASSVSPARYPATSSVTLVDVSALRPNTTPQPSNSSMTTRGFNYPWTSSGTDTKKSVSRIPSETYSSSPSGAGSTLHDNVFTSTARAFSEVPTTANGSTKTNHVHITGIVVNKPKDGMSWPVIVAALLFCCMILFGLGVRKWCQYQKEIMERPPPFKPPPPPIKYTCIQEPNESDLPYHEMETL
Procedure: Isoform 1 of hu-CD96 (Origene, catalog #RC213845) was transiently expressed in HEK293T cells following standard lipofectamine or Fugene transfection protocol. […] Cells were washed, and binding was detected by incubation with anti-mouse IgG-FITC (Biolegend, catalog #406001) for 20 minutes at 4° C. Cell binding was analyzed by flow cytometry with a CytoFLEX (Beckman Coulter). Binding curves were calculated as a percentage of cells positive for bound antibody.

| Binder | % positive [%] |
| --- | --- |
| B1 | 0.8 |
| B2 | 8.5 |
| B3 | 1.5 |
| B4 | 16.5 |

What follows are binders tested against T2, hu-CD96 isoform 2 on CHO cells (human, UniProt P40200 22-585) (assay: FACS, CD155-Fc-FLAG 10 nM, Ab 0.032 nM).
T2 construct: also called CHO-CD96 (isoform 2); CD96-CHOs
T2 sequence: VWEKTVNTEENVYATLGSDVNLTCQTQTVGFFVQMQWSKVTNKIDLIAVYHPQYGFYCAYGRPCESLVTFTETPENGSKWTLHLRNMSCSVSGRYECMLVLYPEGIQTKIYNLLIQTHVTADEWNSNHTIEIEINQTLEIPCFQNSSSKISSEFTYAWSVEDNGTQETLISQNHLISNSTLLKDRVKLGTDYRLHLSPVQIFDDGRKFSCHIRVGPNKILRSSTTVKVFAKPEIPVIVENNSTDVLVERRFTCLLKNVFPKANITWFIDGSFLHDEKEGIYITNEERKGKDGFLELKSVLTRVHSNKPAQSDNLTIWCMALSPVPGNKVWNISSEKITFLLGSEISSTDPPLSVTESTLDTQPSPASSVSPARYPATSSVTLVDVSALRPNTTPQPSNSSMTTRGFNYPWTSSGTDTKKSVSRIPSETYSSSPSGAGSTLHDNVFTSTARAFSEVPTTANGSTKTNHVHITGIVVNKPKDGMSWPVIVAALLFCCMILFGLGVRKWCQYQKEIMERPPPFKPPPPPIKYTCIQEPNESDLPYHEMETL
Procedure: CHO cells stably expressing isoform 2 of hu-CD96 (Origene, catalog #RC221005) were incubated with anti-CD96 antibodies for 20 minutes at 4° C. The cells were washed, and then incubated with 10 nM human CD155-Fc-FLAG for 30 minutes at 4° C. Cells were washed, and then human CD155-Fc-FLAG binding was detected by incubation with anti-FLAG-APC (Columbia Biosciences, catalog #D3-1718-1MG) for 20 minutes at 4° C. Cell binding was analyzed by flow cytometry with a CytoFLEX (Beckman Coulter). CD155 binding is represented as median fluorescence intensity (MedFI).
As shown in Table 20 (below), the anti-CD96 antibodies, mAb1.v7.NGS8, mAb1.v7.NGS9, mAb1.v7.NGS10, mAb1.v7.NGS11, and h10G1 inhibited soluble hu-CD155 binding to CD96-expressing CHO cells dose-dependently and potently. The antibody NK92.39 (Fuchs et al., 2004; Biolegend catalog #338405) inhibited receptor binding similarly.

| Binder | CD155-Fc binding (MedFI) |
| --- | --- |
| B5 | 53000 |
| B6 | 57700 |
| B7 | 57700 |
| B8 | 52100 |

Each binder was assayed against T3, cynomolgus monkey CD96 on cynomolgus monkey PBMCs (cynomolgus monkey, UniProt A0A2K5TWV6 22-569) (assay: FACS, Ab 0.64 nM).
T3 construct: whole, on cells
T3 sequence: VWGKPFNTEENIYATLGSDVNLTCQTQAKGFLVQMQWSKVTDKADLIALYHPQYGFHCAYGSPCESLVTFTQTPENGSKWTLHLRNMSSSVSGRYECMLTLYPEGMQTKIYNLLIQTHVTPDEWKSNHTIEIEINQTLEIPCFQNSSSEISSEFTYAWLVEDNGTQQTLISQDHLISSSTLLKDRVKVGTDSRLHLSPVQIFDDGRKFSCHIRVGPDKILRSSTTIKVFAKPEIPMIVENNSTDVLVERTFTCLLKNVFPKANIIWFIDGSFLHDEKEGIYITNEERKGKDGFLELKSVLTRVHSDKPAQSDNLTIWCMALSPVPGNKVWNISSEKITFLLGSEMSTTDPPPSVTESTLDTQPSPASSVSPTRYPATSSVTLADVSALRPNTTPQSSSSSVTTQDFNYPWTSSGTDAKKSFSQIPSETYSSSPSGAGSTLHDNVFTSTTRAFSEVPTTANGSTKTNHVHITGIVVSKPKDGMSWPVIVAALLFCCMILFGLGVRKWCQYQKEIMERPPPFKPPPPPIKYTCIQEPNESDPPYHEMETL
Procedure: The ability of the anti-CD96 antibodies to bind primary immune cells from human and cynomolgus monkey with lower level of receptor expression was measured. Human PBMCs (StemCell Technologies, catalog #70025) and cynomolgus monkey PBMCs (Primate Biologicals, catalog #CM-MC) were incubated with human TruStain FcX (Biolegend, catalog #422302) for 10 minutes at 4° C., followed by incubation with an anti-CD96 antibody for 20 minutes at 4° C. Cells were washed and the anti-CD96 antibody binding was detected by incubation with anti-mouse IgG-PE (Thermo Fisher, catalog #M30204) or anti-human IgG (Fab) 2-PE (Thermo Fisher, catalog #H10104) for 20 minutes at 4° C. Cells were washed, and immune subtypes were labeled with anti-CD3 (BD, catalog #557705), anti-CD4 (Biolegend, catalog #317424) and anti-CD8 (BD, catalog #557760) for 20 minutes at 4° C. Cell binding was analyzed by flow cytometry with a CytoFLEX (Beckman Coulter). Binding curves were calculated as a percentage of cells positive for bound antibody in the cell type of interest.

| Binder | % positive [%] |
| --- | --- |
| B5 | 71 |
| B6 | 73.1 |
| B7 | 74.3 |
| B8 | 51.2 |
